Data on 30 molecules can be found in patent US20250353912A1 (NEW YORK UNIVERSITY, published 2025).

Where a chain is given by its changes, count along the chain named.

To fix the notation:
B1: EO_Q01 (scFv, V domains shown)
VH: EVQLVESGGGLVQPGGSLRLSCAASGFTISSSYIHWVRQAPGKGLEWVAYISPSYGSTSYADSVKGRFTISADTSKNTAYLQMNSLRAEDTAVYYCARELVTMTADYWGQGTLVTVSS
VL: DIQMTQSPSSLSASVGDRVTITCRASQSVSSAVAWYQQKPGKAPKLLIYSASSLYSGVPSRFSGSRSGTDFTLTISSLQPEDFATYYCQQYSHWPITFGQGTKVEIKR
notes: yeast-display scFv
B2: EO_Q15 (scFv, V domains shown)
VH: B1 VH with V101I, T102E, A105T
VL: B1 VL
notes: yeast-display scFv
B3: EO_Q24 (scFv, V domains shown)
VH: B1 VH with L100Y, T104A, A105L
VL: B1 VL with H93E, I96E
notes: yeast-display scFv
B4: EO_Q05 (scFv, V domains shown)
VH: B1 VH with L100E, T104S, A105I
VL: B1 VL with S92A, H93E
notes: yeast-display scFv
B5: EO_Q09 (scFv, V domains shown)
VH: B1 VH with L100E
VL: B1 VL
notes: yeast-display scFv
B6: EO_Q18 (scFv, V domains shown)
VH: B1 VH with L100Y, T104A, A105L
VL: B1 VL with H93A, I96E
notes: yeast-display scFv
B7: EO_Q06 (scFv, V domains shown)
VH: B1 VH with L100S, V101I, A105K
VL: B1 VL
notes: yeast-display scFv
B8: EO_Q20 (scFv, V domains shown)
VH: B1 VH with L100E, A105P
VL: B1 VL with H93D
notes: yeast-display scFv
B9: EO_Q08 (scFv, V domains shown)
VH: B1 VH with V101T, T102E, A105T
VL: B1 VL with H93S
notes: yeast-display scFv
B10: EO_Q04 (scFv, V domains shown)
VH: B1 VH with L100S, A105K
VL: B1 VL with H93D
notes: yeast-display scFv
B11: EO_Q11 (scFv, V domains shown)
VH: B1 VH with A105I
VL: B1 VL with H93G
notes: yeast-display scFv
B12: EO_Q13 (scFv, V domains shown)
VH: B1 VH with V101T
VL: B1 VL
notes: yeast-display scFv
B13: EO_Q03 (scFv, V domains shown)
VH: B1 VH with L100S, T104S
VL: B1 VL with H93A
notes: yeast-display scFv
B14: EO_Q22 (scFv, V domains shown)
VH: B1 VH with L100Y, T104A, A105L
VL: B1 VL
notes: yeast-display scFv
B15: EO_Q12 (scFv, V domains shown)
VH: B1 VH with V101T, T104S, A105I
VL: B1 VL with S92A, H93S
notes: yeast-display scFv
B16: EO_Q07 (scFv, V domains shown)
VH: B1 VH with V101T, T104S, A105I
VL: B1 VL with S92A, H93K
notes: yeast-display scFv
B17: EO_Q14 (scFv, V domains shown)
VH: B1 VH with L100S, V101I, T104S, A105P
VL: B1 VL with H93S
notes: yeast-display scFv
B18: EO_Q10 (scFv, V domains shown)
VH: B1 VH with V101I, T102E, A105P
VL: B1 VL with H93G
notes: yeast-display scFv
B19: EO_Q02 (scFv, V domains shown)
VH: B1 VH with L100Y, V101T, T104S, A105I
VL: B1 VL with H93A, I96E
notes: yeast-display scFv
B20: EO_Q23 (scFv, V domains shown)
VH: B1 VH with L100Y, T104A, A105L
VL: B1 VL with I96E
notes: yeast-display scFv
B21: IBA1-4 (antibody, V domains shown)
VH: EVQLVESGGGLVQPGGSLRLSCAASGFTVSSSSIHWVRQAPGKGLEWVASIYSYSGSTYYADSVKGRFTISADTSKNTAYLQMNSLRAEDTAVYYCARQYSSSYYVWPGMDYWGQGTLVTVSS
VL: DIQMTQSPSSLSASVGDRVTITCRASQSVSSAVAWYQQKPGKAPKLLIYSASSLYSGVPSRFSGSRSGTDFTLTISSLQPEDFATYYCQQYHYWASLITFGQGTKVEIKR
notes: phage-display clone
B22: IBA1-19 (antibody, V domains shown)
VH: EVQLVESGGGLVQPGGSLRLSCAASGFTFSYSSIHWVRQAPGKGLEWVASIYPSSGYTSYADSVKGRFTISADTSKNTAYLQMNSLRAEDTAVYYCARGWWYWMAWDYAMDYWGQGTLVTVSS
VL: B21 VL with Y91S, H92W, Y93M, W94S, A95D
notes: phage-display clone
B23: IBA1-21 (antibody, V domains shown)
VH: EVQLVESGGGLVQPGGSLRLSCAASGFTISSSSIHWVRQAPGKGLEWVASISSYYGYTSYADSVKGRFTISADTSKNTAYLQMNSLRAEDTAVYYCARYYSYSSGYGYYDYFDWGAMDYWGQGTLVTVSS
VL: B21 VL with Y91M, H92Q, W94S, A95G, S96W
notes: phage-display clone
B24: IBA1-7 (antibody, V domains shown)
VH: EVQLVESGGGLVQPGGSLRLSCAASGFTLSSSSIHWVRQAPGKGLEWVASISSYYGSTSYADSVKGRFTISADTSKNTAYLQMNSLRAEDTAVYYCARMHYSWQEYYSYDWGMDYWGQGTLVTVSS
VL: B21 VL with Y91S, H92Y, Y93W, A95K, I98V
notes: phage-display clone
B25: IBA1-13 (antibody, V domains shown)
VH: EVQLVESGGGLVQPGGSLRLSCAASGFTLSSSSIHWVRQAPGKGLEWVASIYSSYGYTYYADSVKGRFTISADTSKNTAYLQMNSLRAEDTAVYYCARYYYYWYGGMDYWGQGTLVTVSS
VL: DIQMTQSPSSLSASVGDRVTITCRASQSVSSAVAWYQQKPGKAPKLLIYSASSLYSGVPSRFSGSRSGTDFTLTISSLQPEDFATYYCQQGHDMNPVTFGQGTKVEIKR
notes: phage-display clone
B26: IBA1-8 (antibody, V domains shown)
VH: EVQLVESGGGLVQPGGSLRLSCAASGFTISYSSIHWVRQAPGKGLEWVASIYPSYGSTSYADSVKGRFTISADTSKNTAYLQMNSLRAEDTAVYYCARWQGYYQPALDYWGQGTLVTVSS
VL: B1 VL with Y91P, S92Y, H93Y, W94P, P95L
notes: phage-display clone
B27: AMRA11-15 (antibody, human IgG1, V domains shown)
VH: EVQLVESGGGLVQPGGSLRLSCAASGFTVYYSSIHWVRQAPGKGLEWVASIYSYYGSTYYADSVKGRFTISADTSKNTAYLQMNSLRAEDTAVYYCARGEKWALDYWGQGTLVTVSS
VL: B25 VL with G91F, H92D, D93F, M94Q, N95Y, P96L, V97I
notes: phage-display clone; purified as human IgG1/kappa
B28: AMRA3-22 (antibody, human IgG1, V domains shown)
VH: EVQLVESGGGLVQPGGSLRLSCAASGFTFYSSSIHWVRQAPGKGLEWVAYIYSSSGYTSYADSVKGRFTISADTSKNTAYLQMNSLRAEDTAVYYCARPVNYYYQGALDYWGQGTLVTVSS
VL: B1 VL with Y91S, S92D, H93M, W94P
notes: phage-display clone; purified as human IgG1/kappa; also called AMRA3-22 hIgG1
B29: AMRA311-17 (antibody, human IgG1, V domains shown)
VH: EVQLVESGGGLVQPGGSLRLSCAASGFTISSSSIHWVRQAPGKGLEWVASISSYSGSTYYADSVKGRFTISADTSKNTAYLQMNSLRAEDTAVYYCARYPYGSHVYTGLDYWGQGTLVTVSS
VL: B1 VL with Y91S, H93S, W94S, P95L
notes: phage-display clone; purified as human IgG1/kappa; also called AMRA311-17 hIgG1
B30: AMRA311-16 (antibody, human IgG1, V domains shown)
VH: EVQLVESGGGLVQPGGSLRLSCAASGFTISSSSIHWVRQAPGKGLEWVAYISSYSGYTYYADSVKGRFTISADTSKNTAYLQMNSLRAEDTAVYYCARYWYGHYHSYFGLDYWGQGTLVTVSS
VL: B1 VL with Y91S, H93S, W94S, P95L
notes: phage-display clone; purified as human IgG1/kappa; also called AMRA311-16 hIgG1

One test addresses T1, HLA-A*02:01 in complex with the EGFR peptide … conjugated with osimertinib (human, osimertinib covalently bound to Cys).
T1 construct: also called HLA-A*02:01_EGFR-osimertinib; osimertinib-EGFR/HLA-A*02
In words: yeast display.
For B1, the binding result is recorded as “binds”. Consider B2, for which the binding result is recorded as “binds”. With B3, the binding result is listed as “binds”.

Regarding B4, the binding result is on record as “binds”.

B5: the binding result is “binds”.

Consider B6, for which the binding result is “binds”.

Consider B7, for which the binding result is on record as “binds”. With B8, the binding result is reported as “binds”. Still for that read-out and setting: with B9 the entry was “binds”.

In the case of B10, the binding result is “binds”. Turning to B11, the binding result is “binds”. In the case of B12, the binding result was “binds”. Still for that read-out and setting: for B13 the value was “binds”. As to B14, the binding result was “binds”. Same read-out and setting: with B15 the entry was “binds”. On to B16, for which the binding result was “binds”. B17: the binding result is “binds”. The same measure, in the same setting: for B18 the value was “binds”.

On to B19, for which the binding result is listed as “binds”.

With B20, the binding result is recorded as “binds”.

In another test the target is T2, HLA-A*01:01 in complex with the BTK peptide … conjugated with Ibrutinib (human, ibrutinib covalently bound to Cys).
T2 construct: also called HLA-A*01:01_BTK-Ibrutinib
In words: phage display selection; MBBA.
Consider B21, for which the binding result is “binds”. With B22, the binding result was “binds”. With B23, the binding result is “binds”. B24: the binding result was “binds”. For B25, the binding result was “binds”. Still for that read-out and setting: with B26 the entry was “binds”.

A further test deals with T3, HLA-A*03:01 in complex with the KRAS (wild type) peptide … (human).
T3 construct: also called HLA-A*03:01_WTRAS
In words: MBBA titration of purified IgG (FIG. 11).
On to B27, for which the binding result is “no binding”. Regarding B28, the binding result is “no binding”. In the case of B29, the binding result is given as “no binding”.

For B30, the binding result was “no binding”.

For another test, the target named is T4, HLA-A*11:01 in complex with the KRAS (wild type) peptide … (human).
T4 construct: also called HLA-A*11:01_WTRAS
In words: MBBA titration of purified IgG (FIG. 11).
On to B27, for which the binding result is “no binding”. On the same count and under the same terms, with B28 the entry was “no binding”; with B29, “no binding”; with B30, “no binding”.
